Source: paper PMC4162156

Biological target: β-PrP^23–231 (full-length recombinant mouse PrP residues 23–231 refolded to the β-sheet conformation) (mouse) (UniProt P04925)
Assay: AUC

## β-PrP^23–231 (full-length recombinant mouse PrP residues 23–231 refolded to the β-sheet conformation) (from UniProt P04925 23-231) (natural protein)
  percentage occupancy of sample (oligomer): 61%
  stoichiometry N (monomer subunits): 12
